# According to patent publication US20250136963A1 (DENALI THERAPEUTICS, published 2025):
# Target: T1, human apical domain TfR (human, UniProt P02786 198-378)
# T1 construct: also called human TfR; human transferrin receptor 1 apical domain
# Test: SPR (Biacore 8K), fusion captured on Protein A chip, human TfR apical domain as analyte, 1:1 Langmuir fit, monovalent
# Procedure: To determine whether IDUA-Fc fusion proteins with engineered TfR binding affects the ability of the modified Fc domain to interact with human TfR, the affinity of ETV:IDUA Fusions 3, 4, and 6 (Example 1) for human TfR was measured by surface plasmon resonance (SPR) using a Biacore 8K instrument (Cytiva). Five (5) μg/mL of the IDUA-Fc fusion proteins were captured for 1 minute on Protein A-coated Biacore™ Series S CM5 sensor chip and serial 3-fold dilutions of human apical domain TfR were injected at a flow rate of 30 μL/min. Each sample was analyzed with five consecutive 60-second injections with increasing human TfR concentrations followed by a 60-second dissociation at the end of the injection cycle. After each injection, the chip was regenerated using 10 mM glycine-HCl (pH 1.5). Binding response was corrected by subtracting the RU from a flow cell capturing an irrelevant IgG at similar density A. 1:1 Languir model of simultaneous fitting of kₒₙ and koff was used for kinetics analysis using Biacore™ Insight Evaluation Software.
# T1 sequence (P02786 198-378 limits assumed): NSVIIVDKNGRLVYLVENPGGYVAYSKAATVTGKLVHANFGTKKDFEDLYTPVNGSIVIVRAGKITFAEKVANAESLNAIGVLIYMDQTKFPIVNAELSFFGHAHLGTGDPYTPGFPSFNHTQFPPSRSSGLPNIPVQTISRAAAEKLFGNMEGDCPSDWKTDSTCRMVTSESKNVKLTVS
row,Binder,Kd
1,"ETV:IDUA Fusion 3 (Fc fusion, Heterodimer of the two chains; also called third N-terminal monozyme IDUA-Fc fusion protein) chain 1: DKTHTCPPCPAPEAAGGPSVFLFPPKPKDTLMISRTPEVTCVVVDVSHEDPEVKFNWYVDGVEVHNAKTKPREEQYNSTYRVVSVLTVLHQDWLNGKEYKCKVSNKALSAPIEKTISKAKGQPREPQVYTLPPSRDELTKNQVSLWCLVKGFYPSDIAVEWESYGTEWANYKTTPPVLDSDGSFFLYSKLTVTKEEWQQGFVFSCSVMHEALHNHYTQKSLSLSPGK chain 2: EAPHLVQVDAARALWPLRRFWRSTGFCPPLPHSQADQYVLSWDQQLNLAYVGAVPHRGIKQVRTHWLLELVTTRGSTGRGLSYNFTHLDGYLDLLRENQLLPGFELMGSASGHFTDFEDKQQVFEWKDLVSSLARRYIGRYGLAHVSKWNFETWNEPDHHDFDNVSMTMQGFLNYYDACSEGLRAASPALRLGGPGDSFHTPPRSPLSWGLLRHCHDGTNFFTGEAGVRLDYISLHRKGARSSISILEQEKVVAQQIRQLFPKFADTPIYNDEADPLVGWSLPQPWRADVTYAAMVVKVIAQHQNLLLANTTSAFPYALLSNDNAFLSYHPHPFAQRTLTARFQVNNTRPPHVQLLRKPVLTAMGLLALLDEEQLWAEVSQAGTVLDSNHTVGVLASAHRPQGPADAWRAAVLIYASDDTRAHPNRSVAVTLRLRGVPPGPGLVYVTRYLDNGLCSPDGEWRRLGRPVFPTAEQFRRMRAAEDPVAAAPRPLPAGGRLTLRPALRLPSLLLVHVCARPEKPPGQVTRLRALPLTQGQLVLVWSDEHVGSKCLWTYEIQFSQDGKAYTPVSRKPSTFNLFVFSPDTGAVSGSYRVRALDYWARPGPFSDPVPYLEVPVPRGPPSPGNPGGGGSDKTHTCPPCPAPEAAGGPSVFLFPPKPKDTLMISRTPEVTCVVVDVSHEDPEVKFNWYVDGVEVHNAKTKPREEQYNSTYRVVSVLTVLHQDWLNGKEYKCKVSNKALSAPIEKTISKAKGQPREPQVYTLPPSRDELTKNQVSLSCAVKGFYPSDIAVEWESNGQPENNYKTTPPVLDSDGSFFLVSKLTVDKSRWQQGNVFSCSVMHEALHNHYTQKSLSLSPGK",340 nM
2,"ETV:IDUA Fusion 6 (Fc fusion, Heterodimer of the two chains; also called C-terminal monozyme IDUA-Fc fusion protein) chain 1: DKTHTCPPCPAPEAAGGPSVFLFPPKPKDTLMISRTPEVTCVVVDVSHEDPEVKFNWYVDGVEVHNAKTKPREEQYNSTYRVVSVLTVLHQDWLNGKEYKCKVSNKALSAPIEKTISKAKGQPREPQVYTLPPSRDELTKNQVSLWCLVKGFYPSDIAVEWESYGTEWANYKTTPPVLDSDGSFFLYSKLTVTKEEWQQGFVFSCSVMHEALHNHYTQKSLSLSPGK chain 2: DKTHTCPPCPAPEAAGGPSVFLFPPKPKDTLMISRTPEVTCVVVDVSHEDPEVKFNWYVDGVEVHNAKTKPREEQYNSTYRVVSVLTVLHQDWLNGKEYKCKVSNKALSAPIEKTISKAKGQPREPQVYTLPPSRDELTKNQVSLSCAVKGFYPSDIAVEWESNGQPENNYKTTPPVLDSDGSFFLVSKLTVDKSRWQQGNVFSCSVMHEALHNHYTQKSLSLSPGKGGGGSEAPHLVQVDAARALWPLRRFWRSTGFCPPLPHSQADQYVLSWDQQLNLAYVGAVPHRGIKQVRTHWLLELVTTRGSTGRGLSYNFTHLDGYLDLLRENQLLPGFELMGSASGHFTDFEDKQQVFEWKDLVSSLARRYIGRYGLAHVSKWNFETWNEPDHHDFDNVSMTMQGFLNYYDACSEGLRAASPALRLGGPGDSFHTPPRSPLSWGLLRHCHDGTNFFTGEAGVRLDYISLHRKGARSSISILEQEKVVAQQIRQLFPKFADTPIYNDEADPLVGWSLPQPWRADVTYAAMVVKVIAQHQNLLLANTTSAFPYALLSNDNAFLSYHPHPFAQRTLTARFQVNNTRPPHVQLLRKPVLTAMGLLALLDEEQLWAEVSQAGTVLDSNHTVGVLASAHRPQGPADAWRAAVLIYASDDTRAHPNRSVAVTLRLRGVPPGPGLVYVTRYLDNGLCSPDGEWRRLGRPVFPTAEQFRRMRAAEDPVAAAPRPLPAGGRLTLRPALRLPSLLLVHVCARPEKPPGQVTRLRALPLTQGQLVLVWSDEHVGSKCLWTYEIQFSQDGKAYTPVSRKPSTFNLFVFSPDTGAVSGSYRVRALDYWARPGPFSDPVPYLEVPVPRGPPSPGNP",200 nM
3,"ETV:IDUA Fusion 4 (Fc fusion, Heterodimer of the two chains; also called fourth N-terminal monozyme IDUA-Fc fusion protein) chain 1: DKTHTCPPCPAPEAAGGPSVFLFPPKPKDTLMISRTPEVTCVVVDVSHEDPEVKFNWYVDGVEVHNAKTKPREEQYNSTYRVVSVLTVLHQDWLNGKEYKCKVSNKALSAPIEKTISKAKGQPREPQVYTLPPSRDELTKNQVSLWCLVKGFYPSDIAVEWESYGTEWANYKTTPPVLDSDGSFFLYSKLTVTKEEWQQGFVFSCSVMHEALHNHYTQKSLSLSPGK chain 2: EAPHLVQVDAARALWPLRRFWRSTGFCPPLPHSQADQYVLSWDQQLNLAYVGAVPHRGIKQVRTHWLLELVTTRGSTGRGLSYNFTHLDGYLDLLRENQLLPGFELMGSASGHFTDFEDKQQVFEWKDLVSSLARRYIGRYGLAHVSKWNFETWNEPDHHDFDNVSMTMQGFLNYYDACSEGLRAASPALRLGGPGDSFHTPPRSPLSWGLLRHCHDGTNFFTGEAGVRLDYISLHRKGARSSISILEQEKVVAQQIRQLFPKFADTPIYNDEADPLVGWSLPQPWRADVTYAAMVVKVIAQHQNLLLANTTSAFPYALLSNDNAFLSYHPHPFAQRTLTARFQVNNTRPPHVQLLRKPVLTAMGLLALLDEEQLWAEVSQAGTVLDSNHTVGVLASAHRPQGPADAWRAAVLIYASDDTRAHPNRSVAVTLRLRGVPPGPGLVYVTRYLDNGLCSPDGEWRRLGRPVFPTAEQFRRMRAAEDPVAAAPRPLPAGGRLTLRPALRLPSLLLVHVCARPEKPPGQVTRLRALPLTQGQLVLVWSDEHVGSKCLWTYEIQFSQDGKAYTPVSRKPSTFNLFVFSPDTGAVSGSYRVRALDYWARPGPFSDPVPYLEVPVGGGGSDKTHTCPPCPAPEAAGGPSVFLFPPKPKDTLMISRTPEVTCVVVDVSHEDPEVKFNWYVDGVEVHNAKTKPREEQYNSTYRVVSVLTVLHQDWLNGKEYKCKVSNKALSAPIEKTISKAKGQPREPQVYTLPPSRDELTKNQVSLSCAVKGFYPSDIAVEWESNGQPENNYKTTPPVLDSDGSFFLVSKLTVDKSRWQQGNVFSCSVMHEALHNHYTQKSLSLSPGK",355 nM
